{"source": "patent US20240374682A1", "about": "“PHARMACEUTICAL USE OF HYPOXIA-INDUCIBLE LIPID DROPLET-ASSOCIATED PROTEIN OR TRUNCATED FRAGMENT THEREOF” (Westlake University, priority 2021, published 2024)", "key": {"SD rats [1]": {"system": "SD rats", "test": "APOE content in rat cerebrospinal fluid after lateral ventricle injection (ELISA)", "format": "in vivo", "conditions": "0.8 mg/kg lateral ventricle, 4 hours after injection, versus solvent", "protocol": "1) SD rats (8-10 weeks, male, Shanghai Family Planning Institute) were injected through lateral ventricle with the truncated sequence P04 of HILPDA at a dose of 0.8 mg/kg rat body weight or with the same amount of solvent (50% DMSO+50% 0.9% NaCl) in total of 20 μL:\n2) After 4 hours of injection, the cerebrospinal fluid of the rat was collected:\n3) ELISA kit (Cat. No.: E-EL-R1230c, ELabScience) was used to detect the apolipoprotein APOE content in the cerebrospinal fluid."}, "[2]": {"system": "HuH-7 cells, Hep-G2 cells or 786-0 cells", "test": "Uptake of Dil-labelled human low-density lipoprotein by cells (flow cytometry)", "format": "cell-based", "conditions": "10 μM peptide, 5 μg/mL LDL-Dil, 3 hours, versus solvent (DMSO)", "protocol": "1) HuH-7 cells (Cat. No.: TCHu182. Cell Bank of Type Culture Collection Committee of Chinese Academy of Sciences/Cell Resource Center of Shanghai Institutes for Life Sciences. Chinese Academy of Sciences) and Hep-G2 cells (Cat. No.: HB-8065. ATCC. USA) or 786-0 cells (Cat. No.: Cell Bank TCHul86. Cell Bank of Type Culture Collection Committee of Chinese Academy of Sciences/Cell Resource Center of Shanghai Institutes for Life Sciences, Chinese Academy of Sciences) were cultured with DMEM medium in a 10 cm cell culture dish.\n2) Low-density lipoprotein from human plasma and Dil complex (Cat. No. L3482. Invitrogen) were added at a final concentration of 5 μg/mL to the above cells, and at the same time. 10 μM HILPDA P01, truncated sequence P03 of HILPDA or corresponding volume of solvent (DMSO) was added to the cell culture medium.\n3) After culturing for 3 hours, the cells were washed twice with PBS, and the flow cytometry experiment was performed, and the Dil signal intensity of the cells was detected on the PE channel (as shown in FIGS. 8A to 8D)."}, "ES-2 cells": {"system": "ES-2 cells", "test": "APOE3-3xHA uptake by recipient ES-2 cells with synthesized HILPDA peptides (immunofluorescence)", "format": "cell-based", "conditions": "10 μM peptide, 24 hours, versus solvent (DMSO)", "protocol": "(§1) 1) HEK293T cells were cultured with DMEM medium in a 10 cm cell culture dish.\n2) A plasmid of APOE3-3xHA gene was expressed in the above cells.\n(§2) 3) After 12 hours, the old medium in 1) was replaced with fresh DMEM cell culture medium.\n4) After further culturing for 48 hours, the media of the cells cultured in 3) were collected. respectively, and these media were used to directly culture the recipient ES-2 cells (Cat. No.: TCHu111. Cell Bank of Typical Culture Collection Committee of Chinese Academy of Sciences/Cell Resource Center of Shanghai Institutes for Life Sciences. Chinese Academy of Sciences) that had been pre-digested with 0.25% EDTA trypsin, and at the same time, 10 μM truncated sequence HILPDA P01, HILPDA P03 or the corresponding volume of solvent (DMSO) was added to the cell culture media.\n5) After culturing for 24 hours, anti-HA antibody (Cat. No.: ab9110, abcam: a fusion protein for detecting APOE3-3xHA gene expression) was used to carry out immunofluorescent staining experiments."}, "[3]": {"system": "neuronal cells obtained by induction and differentiation of human embryonic stem cells", "test": "APOE uptake by recipient neuronal cells from conditioned medium (western blotting)", "format": "cell-based", "conditions": "conditioned HEK293T medium, 24 hours", "protocol": "as §1\n2) The above cells separately were: transfected to express APOE2-3xHA plasmid, transfected to express APOE3-3xHA plasmid, transfected to express APOE4-3xHA plasmid, co-transfected with plasmid expressing HILPDA-Flag and APOE2-3xHA plasmid, co-transfected with plasmid expressing HILPDA-Flag and APOE3-3xHA plasmid, and co-transfected with plasmid expressing HILPDA-Flag and APOE4-3xHA plasmid.\nas §2\n4) After further culturing for 48 hours, the media of the cultured cells in 3) were collected, respectively, and these media were used to directly culture recipient neuronal cells, wherein the neuronal cells were obtained by induction and differentiation of human embryonic stem cells (WA09-H9 Wincell Research Institute) through STEMdiff Neural (STEMCELL Technologits) differentiation system.\n5) After culturing for 24 hours, anti-Actin (Cat. No.: Proteintech, 66009-1-Ig) and anti-HA antibody (Cat. No.: ab9110, abcam: used to detect three fusion proteins expressed by different alleles APOE2-3xHA, APOE3-3xHA or APOE4-3xHA) were used to perform western blotting."}, "[4]": {"system": "recipient cells (786-O, 769-P, HuH7, ES-2)", "test": "APOE uptake by recipient cells from conditioned medium of HEK293T cells co-expressing HILPDA-Flag and APOE-3xHA (immunofluorescence)", "format": "cell-based", "conditions": "24 hours", "protocol": "as §1\n(§3) 2) The above cells were separately co-transfected with:\nGFP-Flag expressing plasmid and APOE2-3xHA plasmid,\nGFP-Flag expressing plasmid and APOE3-3xHA plasmid,\nGFP-Flag expressing plasmid and APOE4-3xHA plasmid,\nHILPDA-Flag expressing plasmid and APOE2-3xHA plasmid,\nHILPDA-Flag expressing plasmid and APOE3-3xHA plasmid, and\nHILPDA-Flag expressing plasmid and APOE4-3xHA plasmid.\nas §2\n4) After further culturing for 48 hours, the media of the cultured cells in 3) were collected, respectively, and these media were used to directly culture the recipient cells, such as 786-O (Cat. No.: Cell Bank TCHu186, Cell Bank of Type Culture Collection Committee of Chinese Academy of Sciences/Cell Resource Center of Shanghai Institutes for Life Sciences, Chinese Academy of Sciences), 769-P (Cat. No.: Cell Bank TCHu215, Cell Bank of Type Culture Collection Committee of Chinese Academy of Sciences/Cell Resource Center of Shanghai Institutes for Life Sciences, Chinese Academy of Sciences), HuH7 (Cat. No.: TCHu182, Cell Bank of Type Culture Collection Committee of Chinese Academy of Sciences/Cell Resource Center of Shanghai Institutes for Life Sciences, Chinese Academy of Sciences), ES-2 (Cat. No.: TCHu111, Cell Bank of Type Culture Collection Committee of Chinese Academy of Sciences/Cell Resource Center of Shanghai Institutes for Life Sciences, Chinese Academy of Sciences) wild-type cells, that had been pre-digested with trypsin containing 0.25% EDTA.\n5) After culturing for 24 hours, anti-Flag (Cat. No.: F1804, sigma: for detecting GFP-Flag or HILPDA-Flag fusion protein) and anti-HA antibody (Cat. No.: ab9110, abcam: for detecting fusion proteins expressed by three different alleles of APOE2-3xHA, APOE3-3xHA or APOE4-3xHA) were used to perform immunofluorescent staining experiments."}, "mouse brain slices": {"system": "mouse brain slices", "test": "APOE3 uptake by mouse brain slices from conditioned medium (immunofluorescence)", "format": "cell-based", "conditions": "conditioned HEK293T medium, 48 hours, versus GFP-Flag + APOE3-3xHA", "protocol": "as §1, §3\nplasmid expressing GFP-FLAG and APOE3-3xHA plasmid, and\nplasmid expressing HILPDA-Flag and APOE3-3xHA plasmid,\nas §2\n4) After further culturing for 48 hours, the media of the cultured cells in 3) were collected, respectively, and these media were used to directly culture mouse brain slices, wherein the brain slices were obtained by slicing fresh mouse brains to reach a thickness of 150 μm by a vibrating microtome. The slices were cultured in DMEM medium.\n5) After culturing for 48 hours, immunofluorescent staining experiments were carried out with anti-HA antibody (Cat. No.: ab9110, abcam: for detecting APOE3-3xHA fusion protein)."}, "SD rats [5]": {"system": "SD rats", "test": "Low-density lipoprotein cholesterol level in rat plasma after tail vein injection", "format": "in vivo", "conditions": "1.5 mg/kg tail vein, 5 hours after injection, versus solvent", "protocol": "1) SD rats (8-10 weeks old, female, Shanghai Family Planning Institute) were injected through tail vein with HILPDA P02 at a dose of 1.5 mg/kg rat body weight or the same amount of solvent (50% DMSO+50% 0.9% NaCl) in total of 100 μL:\n2) After 5 hours of injection, about 1 mL of blood was collected from the tail vein, and the collected blood was placed in an EDTA-K2 anticoagulant tube and underwent ice-bath for 1 hour, then centrifuged at 2000*g at 4° C., for 10 minutes, and the supernatant plasma was collected:\n3) A biochemical analyzer (Mindray 240) was used to analyze the low-density lipoprotein cholesterol content in the plasma (as shown in FIG. 10)."}}}
{"molecule": "HILPDA P04: synthesized truncated rat HILPDA, SEQ ID NO: 14 (MKYMLNLYVLGVMLTLLSIF) (truncated fragment of rat HILPDA)", "values": [{"measurement": "content of apolipoprotein APOE in the cerebrospinal fluid", "setting": "SD rats [1]", "value": "significantly decreased"}]}
{"molecule": "HILPDA P03: synthesized truncated human HILPDA, SEQ ID NO: 13 (MKHVLNLYLLGVVLTLLSIF) (truncated fragment of human HILPDA)", "values": [{"measurement": "uptake of human low-density lipoprotein particles (Dil signal intensity)", "setting": "[2]", "value": "Promote the Uptake"}, {"measurement": "APOE3-3xHA uptake by recipient cells (anti-HA fluorescent signal)", "setting": "ES-2 cells", "value": "Promote the Clearance"}]}
{"molecule": "HILPDA-Flag: human HILPDA protein fused with FLAG tag, expressed in HEK293T cells and secreted into culture medium (protein, UniProt Q9Y5L2 1-63, looked up, FLAG tag, human HILPDA protein fused with FLAG tag, expressed in HEK293T cells and secreted into culture medium) Hypoxia-inducible lipid …: MKHVLNLYLLGVVLTLLSIFVRVMESLEGLLESPSPGTSWTTRSQLANTEPTKGLPDHPSRSM", "values": [{"measurement": "APOE2-3xHA level in recipient neuronal cells (anti-HA bands)", "setting": "[3]; versus APOE2-3xHA alone", "value": "higher levels of APOE"}, {"measurement": "APOE3-3xHA level in recipient neuronal cells (anti-HA bands)", "setting": "[3]; versus APOE3-3xHA alone", "value": "higher levels of APOE"}, {"measurement": "APOE4-3xHA level in recipient neuronal cells (anti-HA bands)", "setting": "[3]; versus APOE4-3xHA alone", "value": "higher levels of APOE"}, {"measurement": "APOE2-3xHA uptake by recipient cells (anti-HA fluorescent signal)", "setting": "[4]; versus GFP-Flag + APOE2-3xHA", "value": "more and stronger fluorescent signals"}, {"measurement": "APOE3-3xHA uptake by recipient cells (anti-HA fluorescent signal)", "setting": "[4]; versus GFP-Flag + APOE3-3xHA", "value": "more and stronger fluorescent signals"}, {"measurement": "APOE4-3xHA uptake by recipient cells (anti-HA fluorescent signal)", "setting": "[4]; versus GFP-Flag + APOE4-3xHA", "value": "more and stronger fluorescent signals"}, {"measurement": "APOE3-3xHA uptake by brain slices (anti-HA fluorescent signal)", "setting": "mouse brain slices", "value": "more and stronger fluorescent signals"}]}
{"molecule": "HILPDA P01: synthesized mouse HILPDA polypeptide, SEQ ID NO: 2 (peptide, listed as Mus musculus) MKFMLNLYVLGIMLTLLSIFVRVMESLGGLLESPLPGSSWITRGQLANTQPPKGLPDHPSRGVQ", "values": [{"measurement": "uptake of human low-density lipoprotein particles (Dil signal intensity)", "setting": "[2]", "value": "Promote the Uptake"}, {"measurement": "APOE3-3xHA uptake by recipient cells (anti-HA fluorescent signal)", "setting": "ES-2 cells", "value": "Promote the Clearance"}]}
{"molecule": "HILPDA P02: synthesized rat HILPDA polypeptide, SEQ ID NO: 12 (peptide, listed as Rattus norvegicus) MKYMLNLYVLGVMLTLLSIFVRLMESLGGLLENPLPGSSWITRGHLANTQPPRGLPDHPSRGVQ", "values": [{"measurement": "low-density lipoprotein cholesterol level in plasma", "setting": "SD rats [5]", "value": "significantly reduced"}]}
